Data on eight molecules can be found in US20260103513A1 (HEFEI TG IMMUNOPHARMA, published 2026).

Assay [1] concerns the target T1, TIGIT protein overexpressed on cells (Homo sapiens (Human), UniProt Q495A1 22-244).
T1 construct: also called CHO-K1-TIGIT
T1 sequence: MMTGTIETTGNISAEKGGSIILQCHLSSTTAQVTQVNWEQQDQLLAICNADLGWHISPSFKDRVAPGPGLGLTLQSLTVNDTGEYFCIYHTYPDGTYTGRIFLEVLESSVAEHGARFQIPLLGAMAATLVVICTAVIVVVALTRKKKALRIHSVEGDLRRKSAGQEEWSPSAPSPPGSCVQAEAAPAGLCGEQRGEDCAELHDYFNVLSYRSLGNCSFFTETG
The experiment in a line: flow cytometry on CHO-K1-TIGIT cells, binding percentage (%).

Assay [2] concerns the target T1, TIGIT protein overexpressed on cells. Kind of assay: flow cytometry competition on CHO-K1-TIGIT cells; blocked ligand CD155-mIgG2a-Fc, binding percentage (%). For orientation: A flow cytometer gives signals particle by particle.
The target in assay [3] is T2, recombinant TIGIT extracellular domain-Fc fusion protein.
T2 construct: Covalently coupled to the CM5 chip in the Biacore assay; also called TIGIT-Fc
The experiment in a line: SPR, Biacore T200, TIGIT-Fc amine-coupled on CM5, antibody injected, 1:1 Langmuir model. Here is the method: The Biacore method is a well-established objective assay for detecting the affinity and kinetics between proteins. The TIGIT antibody of the present disclosure was analyzed using Biacore T200 to characterize its affinity and binding kinetics.
The TIGIT extracellular domain-Fc fusion protein (TIGIT-Fc) was covalently attached to a CM5 (GE) chip using a standard amino coupling method. A series of TIGIT antibodies diluted in PBS buffer at a concentration gradient was then injected in cycles, followed by regeneration with 10 mM NaOH solution. The antigen-antibody binding kinetics were monitored for 3 minutes, followed by dissociation kinetics for 10 minutes. The resulting data were analyzed using GE's BIAevaluation software in a 1:1 (Langmuir) binding model.
On the technique in general: Surface plasmon resonance follows binding to a sensor surface in real time, without labels.

Assay [4] addresses T3, Human TIGIT-His tag fusion protein (human, UniProt Q495A1 22-141).
T3 construct: extracellular domain; Bought (Acro); also called TIGIT extracellular domain-His tag fusion protein; TIGIT protein; not shown: His tag
T3 sequence (looked up): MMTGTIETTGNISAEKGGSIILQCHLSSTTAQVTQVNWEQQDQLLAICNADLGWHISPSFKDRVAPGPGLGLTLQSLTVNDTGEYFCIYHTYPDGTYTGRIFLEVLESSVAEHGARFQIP
The experiment in a line: ELISA, human TIGIT-His coated, HRP anti-human IgG, OD450. For orientation: An ELISA detects its analyte on a solid surface through an enzyme-linked reagent.

For assay [5], the target named is T1, TIGIT protein overexpressed on cells. The experiment in a line: flow cytometry on 293T-TIGIT cells, Alexa-647 anti-human Fc, MFI.
Assay [6] addresses T4, Cynomolgus monkey TIGIT-His tag fusion protein (cynomolgus monkey, UniProt A0A7N9I9V4 89-209).
T4 construct: extracellular domain; Bought (Acro); also called TIGIT extracellular domain-His tag fusion protein; TIGIT protein; not shown: His tag
Kind of assay: ELISA, cynomolgus TIGIT-His coated, HRP anti-human IgG, OD450.

Assay [7] concerns the target T1, TIGIT protein overexpressed on cells. Kind of assay: flow cytometry competition on 293T-TIGIT cells; blocked ligand CD155-mIgG2a-Fc, APC anti-mouse IgG2a, MFI.
Assay [8] concerns the target T3, Human TIGIT-His tag fusion protein. Kind of assay: competition ELISA on coated TIGIT-His; blocked ligand CD155-Biotin; the sheet does not name the species of the TIGIT-His.

B1: 22G2 (antibody, mouse IgG2a, kappa, V domains shown)
VH: QVQLQESGPGLVKPSETLSLTCTVSGGSVSSGIYYWSWIRQPPGKGLEWIGYIYYSGSTNYNPSLKSRVTISVDTSKNQFSLKLSSVTAADTAVYYCARDYYVSGNYYNVDYYFFGVDVWGQGTTVTVSS
VL: EIVLTQSPATLSLSPGERATLSCRASQSVSSYLAWYQQKPGQAPRLLIYDASNRATGIPARFSGSGSGTDFTLTISSLEPEDFAVYYCQQRSNWPPLFTFGPGTKVDIKR
notes: Comparator, mouse IgG2a heavy and mouse kappa light constant regions; the printed heavy chain reads VVVAVSE (as in the D265A form) although it is named only mIgG2a; also called 22G2-mIgG2a; 22G2 antibody
Consider B1, for which the “EC50 (read off the curve)” value in assay [1] is roughly 0.2 µg/mL. In addition, the “IC50 (read off the curve)” value in assay [2] was roughly 0.2 µg/mL.

B2: 4.1D3 (antibody, mouse IgG2a, kappa, V domains shown)
VH: EVQLQQSGPGLVKPSQTLSLTCAISGDSVSSNSAAWNWIRQSPSRGLEWLGKTYYRFKWYSDYAVSVKGRITINPDTSKNQFSLQLNSVTPEDTAVFYCTRESTTYDLLAGPFDYWGQGTLVTVSS
VL: not shown
notes: Comparator, made with mouse IgG2a heavy and mouse kappa light constant regions; also called 4.1D3-mIgG2a; 4.1D3 antibody
As for B2, the “EC50 (read off the curve)” value in assay [1] was roughly 0.1 µg/mL. In addition, the “IC50 (read off the curve)” value in assay [2] was roughly 0.3 µg/mL.

B3: H401LV2-mIgG2a (antibody)
heavy: QVQLQESGPGLVKPSQTLSLTCTVTGSSITSDYAWNWIRQFPGKKLEWMGYITYSGRTTYNPSLKSRITISRDTSKNQFSLKLSSVTAADTATYYCARWGLLRRYFDYWGQGTLLTVSSAKTTAPSVYPLAPVCGDTTGSSVTLGCLVKGYFPEPVTLTWNSGSLSSGVHTFPAVLQSDLYTLSSSVTVTSSTWPSQSITCNVAHPASSTKVDKKIEPRGPTIKPCPPCKCPAPNLLGGPSVFIFPPKIKDVLMISLSPIVTCVVVDVSEDDPDVQISWFVNNVEVHTAQTQTHREDYNSTLRVVSALPIQHQDWMSGKEFKCKVNNKDLPAPIERTISKPKGSVRAPQVYVLPPPEEEMTKKQVTLTCMVTDFMPEDIYVEWTNNGKTELNYKNTEPVLDSDGSYFMYSKLRVEKKNWVERNSYSCSVVHEGLHNHHTTKSFSRTPGK
light: DIVMTQSPSSMSTSVGDRVTITCRASQDVFNQVAWYQQKPGKSPKLLIYSASFRYTGVPDRFSGSGSGTDFTFTISSVQAEDFATYYCQQHYSTPLTFGAGTKLELKRADAAPTVSIFPPSSEQLTSGGASVVCFLNNFYPKDINVKWKIDGSERQNGVLNSWTDQDSKDSTYSMSSTLTLTKDEYERHNSYTCEATHKTSTSPIVKSFNRNEC
notes: Mouse IgG2a constant region, mouse kappa light chain (H401LV2-mK); also called TIGIT antibody H401LV2-mIgG2a
Consider B3, for which the “EC50 (read off the curve)” value in assay [1] is roughly 0.05 µg/mL. In assay [2], the “IC50 (read off the curve)” value is roughly 0.2 µg/mL.

B4: H401LV2 (antibody, V domains shown)
VH: QVQLQESGPGLVKPSQTLSLTCTVTGSSITSDYAWNWIRQFPGKKLEWMGYITYSGRTTYNPSLKSRITISRDTSKNQFSLKLSSVTAADTATYYCARWGLLRRYFDYWGQGTLLTVSS
VL: DIVMTQSPSSMSTSVGDRVTITCRASQDVFNQVAWYQQKPGKSPKLLIYSASFRYTGVPDRFSGSGSGTDFTFTISSVQAEDFATYYCQQHYSTPLTFGAGTKLELK
notes: also called matured TIGIT antibody H401LV2
With B4, in assay [3], the Kd was no more than 0.00508 nM, the koff is no more than 1e-06 s⁻¹ and the kon was found to be 197000 M⁻¹ s⁻¹.

B5: H401LV2-hIgG1 (antibody)
heavy: not shown
light: DIVMTQSPSSMSTSVGDRVTITCRASQDVFNQVAWYQQKPGKSPKLLIYSASFRYTGVPDRFSGSGSGTDFTFTISSVQAEDFATYYCQQHYSTPLTFGAGTKLELKRTVAAPSVFIFPPSDEQLKSGTASVVCLLNNFYPREAKVQWKVDNALQSGNSQESVTEQDSKDSTYSLSSTLTLSKADYEKHKVYACEVTHQGLSSPVTKSFNRGEC
notes: Wild-type human IgG1 constant region, human kappa light chain (H401LV2-hK); also called TIGIT antibody H401LV2
B5: the “EC50 (read off the curve)” value was roughly 0.04 µg/mL in assay [4], roughly 0.4 µg/mL in assay [5] and roughly 0.02 µg/mL in assay [6]. Also, the results for the “IC50 (read off the curve)” value in assay [7] and in assay [8] were roughly 0.5 µg/mL and roughly 0.8 µg/mL, respectively.

B6: H401LV2-hIgG4S228P (antibody)
heavy: not shown
light: DIVMTQSPSSMSTSVGDRVTITCRASQDVFNQVAWYQQKPGKSPKLLIYSASFRYTGVPDRFSGSGSGTDFTFTISSVQAEDFATYYCQQHYSTPLTFGAGTKLELKRTVAAPSVFIFPPSDEQLKSGTASVVCLLNNFYPREAKVQWKVDNALQSGNSQESVTEQDSKDSTYSLSSTLTLSKADYEKHKVYACEVTHQGLSSPVTKSFNRGEC
notes: also called TIGIT antibody H401LV2
As for B6, the “EC50 (read off the curve)” value in assay [4] was roughly 0.04 µg/mL; in assay [6] it was roughly 0.02 µg/mL. Further, the “IC50 (read off the curve)” value is roughly 0.5 µg/mL in assay [7] and roughly 0.8 µg/mL in assay [8].

B7: Hu4A501 (antibody, V domains shown)
VH: QVQLQESGPGLVKPSQTLSLTCTVTGSSITSDYAWNWIRQFPGKKLEWMGYITYSGRTTYNPSLKSRITISRDTSKNQFSLKLSSVTAADTATYYCARWGLLRRYFDYWGQGTLLTVSS
VL: DIVMTQSPSSMSTSVGDRVTITCRASQDVFTAVAWYQQKPGKSPKLLIYSASFRYTGVPDRFSGSGSGTDFTFTISSVQAEDFATYYCQQHYSTPLTFGAGTKLELKR
notes: also called parental antibody Hu4A501; parent antibody Hu4A501
Consider B7, for which the “EC50 (read off the curve)” value in assay [6] is roughly 0.04 µg/mL. Also, in assay [3], the Kd is 5.06 nM, the koff was determined as 0.000501 s⁻¹ and the kon amounted to 98900 M⁻¹ s⁻¹. The “IC50 (read off the curve)” value in assay [8] was roughly 0.8 µg/mL.

B8: H401LV2-hIgG1LALA (antibody)
heavy: not shown
light: DIVMTQSPSSMSTSVGDRVTITCRASQDVFNQVAWYQQKPGKSPKLLIYSASFRYTGVPDRFSGSGSGTDFTFTISSVQAEDFATYYCQQHYSTPLTFGAGTKLELKRTVAAPSVFIFPPSDEQLKSGTASVVCLLNNFYPREAKVQWKVDNALQSGNSQESVTEQDSKDSTYSLSSTLTLSKADYEKHKVYACEVTHQGLSSPVTKSFNRGEC
notes: as for B6
Turning to B8, the “EC50 (read off the curve)” value in assay [4] was roughly 0.04 µg/mL; in assay [5], roughly 0.6 µg/mL; in assay [6] it was roughly 0.02 µg/mL. For the same molecule, the “IC50 (read off the curve)” value in assay [7] is roughly 0.5 µg/mL; in assay [8] it was roughly 0.8 µg/mL.

For orientation: EC50 (read off the curve) means the concentration at which the effect is half-maximal. In general, Kd refers to the free concentration of one partner at which half of the binding sites on the other are occupied at equilibrium, for simple one-to-one binding. By koff is commonly meant a measure of how fast the partners let go of each other. As a reminder, the kon is a measure of how fast the partners come together.
